Data on 3 molecules can be found in PMC8514580, “Insight into the interaction between the RNA helicase CGH-1 and EDC-3 and its implications” (Scientific Reports, 2021).

Changes are numbered by the printed parent chain. Where two headings read alike, the source gives them in different places. No end group written: not given here.

One test has as its target CGH-1_248-420^F355A (Caenorhabditis elegans, UniProt Q95YF3, F355A). The following applies: ITC, 20 °C, pH 7.5, 150 mM NaCl, CGH-1 F355A. Here is the method: Expression plasmids regarding CGH-1 and CAR-1 were constructed as previously described. In brief, the cDNA fragments encoding CGH-1 RecA2 (residues 248–420), CAR-1 FDF-TFG (residues 184–268) were amplified by PCR from C. elegans genome library and cloned into the NdeI and XhoI site of a modified pET-28a (Novagen) vector (p28a), in which a thrombin protease cleavage site was removed.
CGH-1 protein expression and purification were performed described as in our most recent paper. In brief, proteins were expressed in E. coli Gold (DE3) strain (Novagen). […] Cells were resuspended in Buffer A (20 mM Tris–HCl, pH 7.5, 1 M NaCl), and then lysed using high pressure at 4 °C. Proteins were initially purified by Ni-chelating resin (Qiagen), and further purified by size exclusion chromatography (SEC) on a Superdex 75 column (GE healthcare) in Buffer A. The purified proteins were dialyzed into Buffer B (20 mM Tris–HCl, pH 7.5, 150 mM NaCl).
A peptide containing the C. elegans EDC-3 FDF fragment (residues 235–271) and PATR-1 fragment (residues 30–67) were synthesized from GL Biochem (Shanghai, China) Co., Ltd, respectively. Stock solutions of peptide were prepared in Buffer B described above, and were adjusted to pH 7.5 ± 0.02 for subsequent experiments.
ITC assays were performed as previously described. In brief, it was carried out on a MicroCal PEAQ-ITC (Malvern) at 20 °C with the following settings: reference power, 5 μcal/s; initial delay, 60 s; stir speed, 750 rpm; spacing time, 120 s. Proteins (or its mutants) and peptides were adjusted to 0.05 mM and 0.5 mM, respectively. Experiments were initialed by injection of 1 μl each of peptide into the sample cell (200 μl) filled with protein (or its mutants) solution, followed by 18 injections of 2 μl. The ITC data were fitted with a one-binding-site model using the Origin analysis software.
(In general: In ITC the heat of successive injections is recorded.)

The target in test [1] is T1, CGH-1_(248–420) wild type (CGH-1 RecA2 domain) (C. elegans, UniProt Q95YF3 248-420).
T1 construct: Cloned into NdeI/XhoI of a modified pET-28a in which the thrombin cleavage site was removed; also called CGH-1_248-420^WT; source: E. coli Gold (DE3), purified (Ni-chelating resin, SEC Superdex 75)
T1 sequence (looked up): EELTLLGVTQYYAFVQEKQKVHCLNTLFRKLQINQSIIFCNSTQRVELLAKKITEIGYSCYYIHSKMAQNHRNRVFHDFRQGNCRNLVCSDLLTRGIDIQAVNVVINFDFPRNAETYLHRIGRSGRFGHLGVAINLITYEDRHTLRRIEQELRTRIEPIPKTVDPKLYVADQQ
Put plainly: ITC; ligand (peptide or CAR-1 fragment, 0.5 mM) injected into CGH-1_(248-420) or mutant (0.05 mM) in the cell; 20 °C; Buffer B (20 mM Tris-HCl pH 7.5, 150 mM NaCl); one-binding-site model. The following applies: both partners purified.

In another test the target is T2, CGH-1_(248–420) H269A (C. elegans, UniProt Q95YF3 248-420, H269A).
T2 construct: Mutant of m1 made with the MutanBEST kit; source: E. coli Gold (DE3), purified (Ni-chelating resin, SEC Superdex 75)
T2 sequence (looked up): T1 sequence (looked up) with H22A
Described as above. The following applies: both partners purified.

Another test has as its target T3, CGH-1_(248–420) Q266A (C. elegans, UniProt Q95YF3 248-420, Q266A).
T3 construct: Mutant of m1 made with the MutanBEST kit; source: E. coli Gold (DE3), purified (Ni-chelating resin, SEC Superdex 75)
T3 sequence (looked up): T1 sequence (looked up) with Q19A
Described as above. The following applies: both partners purified.

The next test has as its target T4, CGH-1_(248–420) K277E (C. elegans, UniProt Q95YF3 248-420, K277E).
T4 construct: Mutant of m1 made with the MutanBEST kit; source: E. coli Gold (DE3), purified (Ni-chelating resin, SEC Superdex 75)
T4 sequence (looked up): T1 sequence (looked up) with K30E
Described as above. The following applies: both partners purified.

The target in another test is T5, CGH-1_(248–420) E396A (C. elegans, UniProt Q95YF3 248-420, E396A).
T5 construct: Mutant of m1 made with the MutanBEST kit; source: E. coli Gold (DE3), purified (Ni-chelating resin, SEC Superdex 75)
T5 sequence (looked up): T1 sequence (looked up) with E149A
The description is as above. The following applies: both partners purified.

Test [2] deals with T6, CGH-1_(248–420) 4A mutant (His269, Cys270, Thr273 and Leu274 to Ala) (C. elegans, UniProt Q95YF3 248-420, His269 to Ala | Cys270 to Ala | Thr273 to Ala | Leu274 to Ala).
T6 construct: Mutant of m1 made with the MutanBEST kit; also called four-alanine mutant; source: E. coli Gold (DE3), purified (Ni-chelating resin, SEC Superdex 75)
T6 sequence (looked up): T1 sequence (looked up) with H22A, C23A, T26A, L27A
The description is as above. The following applies: both partners purified.

For another test, the target named is T7, CGH-1_(248–420) F261A (C. elegans, UniProt Q95YF3 248-420, F261A).
T7 construct: Mutant of m1 made with the MutanBEST kit; source: E. coli Gold (DE3), purified (Ni-chelating resin, SEC Superdex 75)
T7 sequence (looked up): T1 sequence (looked up) with F14A
The test is described as above. The following applies: both partners purified.

A further test addresses T8, CGH-1_(248–420) R393A (C. elegans, UniProt Q95YF3 248-420, R393A).
T8 construct: Mutant of m1 made with the MutanBEST kit; source: E. coli Gold (DE3), purified (Ni-chelating resin, SEC Superdex 75)
T8 sequence (looked up): T1 sequence (looked up) with R146A
The description is as above. The following applies: both partners purified.

A further test concerns the target T9, CGH-1_(248–420) K277A (C. elegans, UniProt Q95YF3 248-420, K277A).
T9 construct: Mutant of m1 made with the MutanBEST kit; source: E. coli Gold (DE3), purified (Ni-chelating resin, SEC Superdex 75)
T9 sequence (looked up): T1 sequence (looked up) with K30A
The test is described as above. The following applies: both partners purified.

Sequence of CGH-1_248-420^F355A (Q95YF3 248-420 F355A): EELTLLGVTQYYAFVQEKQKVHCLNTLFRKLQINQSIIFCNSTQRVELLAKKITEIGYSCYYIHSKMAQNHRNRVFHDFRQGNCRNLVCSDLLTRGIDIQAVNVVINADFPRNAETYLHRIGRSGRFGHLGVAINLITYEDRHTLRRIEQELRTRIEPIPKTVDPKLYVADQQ

As to “SDEDHNIFDDEFDAANDETFGGGLDNIGENAELENYAT [PATR-1_30–67]”, the “KD / binding (in words)” value on CGH-1_248-420^F355A is “almost abolished the binding”; at CGH-1_248-420^F355A (listed as CePATR-1_30–67) it was “almost abolishes the binding”; on CGH-1_248-420^F355A (listed as PATR1 30-67) it was “No binding”; on CGH-1_248-420^F355A (listed as PATR-1 peptide), “undetectable binding”.

B1: CAR-1 FDF-TFG (CAR-1_(184–268)) (domain or fragment, C. elegans, UniProt Q9XW17 184-268, looked up)
chain: LKFESDFDFEKANEKFQEVLVDNLEKLNIEDKAEPEVEEKKDAAFYDKKTSFFDNISCESLEKAEGKTGRPDWKKERETNQETFG
notes: thrombin site of the vector removed; also called CAR-1_184-268^WT; recombinant CAR-1_(184–268) protein; source: recombinant; plasmid in modified pET-28a
The Kd is the free concentration of one partner at which half of the binding sites on the other are occupied at equilibrium, for simple one-to-one binding. A high value points to a looser complex. For orientation: stoichiometry N means the number of molecules, sites or subunits per partner or assembly. In the case of B1, in test [1], the affinity, expressed as Kd, was 3030 ± 210 nM; the dH was -27 ± 0.43 kcal per mol; the “stoichiometry N” value turned out to be 0.89.

B2: EDC-3 FDF peptide (EDC-3_(235–271)) (peptide)
peptide: LADPIDFDLDSDFDFAENLKLFEKDENDDQYYETVEK
notes: Enhancer of decapping-3 (EDC-3, also called LSm16), C. elegans, FDF fragment, residues 235-271; Printed with free NH2 and COOH ends; also called EDC-3 peptide; EDC-3 FDF-FEK peptide; source: synthetic peptide (GL Biochem, Shanghai)
As to B2, the Kd with CGH-1_(248–420) H269A was 2550 ± 320 nM; with CGH-1_(248–420) Q266A it was 1750 ± 380 nM; in the test with CGH-1_(248–420) K277E, 5970 ± 510 nM; with CGH-1_(248–420) E396A, 850 ± 110 nM; in [2], 8750 ± 3640 nM; with CGH-1_(248–420) F261A, 1160 ± 240 nM. Besides, the results for the Kd in the test with CGH-1_(248–420) R393A and with CGH-1_(248–420) K277A were 2070 ± 280 nM and 2740 ± 340 nM, respectively. Further, the dH with CGH-1_(248–420) H269A is -12.5 ± 0.34 kcal per mol; with CGH-1_(248–420) Q266A, -12.1 ± 0.51 kcal per mol; in the test with CGH-1_(248–420) K277E it was -11.5 ± 0.3 kcal per mol; with CGH-1_(248–420) E396A it was -16.1 ± 0.31 kcal per mol; in test [2] it was -5.94 ± 0.89 kcal per mol; in the test with CGH-1_(248–420) F261A it was -14.1 ± 0.48 kcal per mol. Also, the dH with CGH-1_(248–420) R393A was -17.3 ± 0.47 kcal per mol; in [1] it was -17.6 ± 0.09 kcal per mol; with CGH-1_(248–420) K277A, -15.2 ± 0.47 kcal per mol. In addition, the “stoichiometry N” value with CGH-1_(248–420) H269A came out at 1.03; with CGH-1_(248–420) Q266A, 1.1; with CGH-1_(248–420) K277E, 1.12; with CGH-1_(248–420) E396A, 1; in [2] it was 0.79; in the test with CGH-1_(248–420) F261A, 1.09. Also, the “stoichiometry N” value came to 0.99 with CGH-1_(248–420) R393A, 1.07 in test [1] and 1.22 with CGH-1_(248–420) K277A.
